From patent US20240382605A1, “CONJUGATED OLIGONUCLEOTIDES AND USES THEREOF” (Ionis Pharmaceuticals, Inc., priority 2021, published 2024)

Tests used:
mouse DMPK RNA = test: Example 8: mouse DMPK RNA and ED50 in tissues of hTFR^KI/+ knock in mice, multiple dose (RTPCR, day 15); type: in vivo;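 further: conjugated oligonucleotide given as three doses to hTFR^KI/+ knock-in mice, tissues taken at day 15 and mouse DMPK RNA quantified by real-time RT-PCR against PBS-treated controls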
Experimental: The activity and tolerability of modified oligonucleotides conjugated to CD71 bicycle ligands were tested in hTFR^KI/+ knock in mice (described herein above).
(§1) Each mouse received an intravenous (i.v.) administration or subcutaneous (s.c.) administration of conjugated modified oligonucleotide for a total of 3 doses (on Days 1, 5, and 9) at doses indicated in the table below. […] A group of 4 mice received PBS as a negative control.
The mice were sacrificed six days post final administration (on day 15), and RNA was extracted from various muscle tissues (including quadriceps (Quad), tibialis anterior (TA), diaphragm, triceps, heart, gastrocnemius (gastroc)), aorta, sciatic nerve, and liver tissue for quantitative real time RTPCR analysis to measure amount of mouse DMPK RNA using mouse primer probe set RTS3181 (described herein above).

[1] = Example 8: plasma chemistry markers in hTFR^KI/+ knock in mice; type: in vivo, mouse; details: plasma day 15;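 further: plasma levels read on an automated clinical chemistry analyzer after three doses of conjugated modified oligonucleotide, with a PBS-treated group as negative control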
Text: as §1
To evaluate the effect of modified oligonucleotides on liver and kidney function, plasma levels of albumin (ALB), alanine aminotransferase (ALT), aspartate aminotransferase (AST), blood urea nitrogen (BUN), total bilirubin (TBIL), total Protein (PROT), Creatine (CREAT), and Creatine Kinase (CK) were measured on the day the mice were sacrificed (day 15) using an automated clinical chemistry analyzer (Hitachi Olympus AU400c, Melville, NY).

[2] = Example 8: hematology assays / blood cell counts in hTFR^KI/+ knock in mice; type: in vivo, mouse; details: for Mean corpuscular volume (MCV) / hematocrit (HCT) / hemoglobin (HGB) / mean corpuscular hemoglobin (MCH) / mean corpuscular hemoglobin concentration (MCHC) / red blood cell (RBC) count / white blood cell (WBC) count: blood day 15; for BAS (basophils) / LYM (lymphocytes) / MON (monocytes) / NEU (neutrophils) / PLT (platelets) / RETI (reticulocytes): day 15;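 on all read-outs here: mice given conjugated modified oligonucleotide, three doses total, blood cell counts measured at sacrifice, PBS-treated group of 4 mice serves as negative control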
Text: as §1
Blood obtained from mice on the day the mice were sacrificed (day 15) were sent to IDEXX BioResearch for measurement of blood cell counts. Counts taken include red blood cell (RBC) count, white blood cell (WBC) count, hemoglobin (HGB), hematocrit (HCT), Mean corpuscular volume (MCV), mean corpuscular hemoglobin (MCH), and mean corpuscularhemoglobin concentration (MCHC). Individual white blood cell counts, such as that of monocytes (MON), neutrophils (NEU), lymphocytes (LYM), eosinophils (EOS), basophils (BAS), reticulocytes, and platelets were evaluated.

[3] = Example 8: body and organ weights in hTFR^KI/+ knock in mice; type: in vivo, mouse; details: for Organ weight Kidney / Organ weight Liver / Organ weight Spleen: day 15
Experimental: as §1
Liver, kidney, and spleen weights were measured on the day the mice were sacrificed (day 15), and the average organ weights for each group are presented in the tables below.

[4] = reduction of mouse DMPK RNA, i.v., 3 doses on Days 1, 5, 9

With “1590463 BCY17896 (CPXDAYLGCXSYCX; not fully specified; non-natural residues; cyclised or stapled)” the “Diaphragm mouse DMPK RNA (% control)” value (mouse DMPK RNA; i.v. 1 mg/kg on Days 1, 5, 9) was 60 % control, the “Gastrocnemius mouse DMPK RNA (% control)” value (mouse DMPK RNA; i.v. 1 mg/kg on Days 1, 5, 9) was 75 % control and the “Heart mouse DMPK RNA (% control)” value (mouse DMPK RNA; i.v. 1 mg/kg on Days 1, 5, 9) was 81 % control. The “Quadriceps mouse DMPK RNA (% control)” value (mouse DMPK RNA; i.v. 1 mg/kg on Days 1, 5, 9) was 74 % control, the “Tibialis Anterior mouse DMPK RNA (% control)” value (mouse DMPK RNA; i.v. 1 mg/kg on Days 1, 5, 9) was 84 % control and the “Diaphragm mouse DMPK RNA (% control)” value (mouse DMPK RNA; i.v. 10 mg/kg on Days 1, 5, 9) was 16 % control. The “Gastrocnemius mouse DMPK RNA (% control)” value (mouse DMPK RNA; i.v. 10 mg/kg on Days 1, 5, 9) was 28 % control, the “Heart mouse DMPK RNA (% control)” value (mouse DMPK RNA; i.v. 10 mg/kg on Days 1, 5, 9) was 56 % control and the “Quadriceps mouse DMPK RNA (% control)” value (mouse DMPK RNA; i.v. 10 mg/kg on Days 1, 5, 9) was 23 % control. The “Tibialis Anterior mouse DMPK RNA (% control)” value (mouse DMPK RNA; i.v. 10 mg/kg on Days 1, 5, 9) was 28 % control, the “Creatine (CREAT)” value ([1]; i.v. 1 mg/kg on Days 1, 5, 9) was 0.16 mg/dL and the “alanine aminotransferase (ALT)” value ([1]; i.v. 1 mg/kg on Days 1, 5, 9) was 40 U/L. The “albumin (ALB)” value ([1]; i.v. 1 mg/kg on Days 1, 5, 9) was 2.82 g/dL, the “aspartate aminotransferase (AST)” value ([1]; i.v. 1 mg/kg on Days 1, 5, 9) was 111 U/L and the “blood urea nitrogen (BUN)” value ([1]; i.v. 1 mg/kg on Days 1, 5, 9) was 24 mg/dL. The “total Protein (PROT)” value ([1]; i.v. 1 mg/kg on Days 1, 5, 9) was 4.83 g/dL, the “total bilirubin (TBIL)” value ([1]; i.v. 1 mg/kg on Days 1, 5, 9) was 0.12 mg/dL and the “Creatine (CREAT)” value ([1]; i.v. 10 mg/kg on Days 1, 5, 9) was 0.16 mg/dL. For the same substance, the “alanine aminotransferase (ALT)” value ([1]; i.v. 10 mg/kg on Days 1, 5, 9) was 34 U/L, the “albumin (ALB)” value ([1]; i.v. 10 mg/kg on Days 1, 5, 9) was 2.70 g/dL and the “aspartate aminotransferase (AST)” value ([1]; i.v. 10 mg/kg on Days 1, 5, 9) was 119 U/L. The “blood urea nitrogen (BUN)” value ([1]; i.v. 10 mg/kg on Days 1, 5, 9) was 22 mg/dL, the “total Protein (PROT)” value ([1]; i.v. 10 mg/kg on Days 1, 5, 9) was 4.57 g/dL and the “total bilirubin (TBIL)” value ([1]; i.v. 10 mg/kg on Days 1, 5, 9) was 0.11 mg/dL. The “Mean corpuscular volume (MCV)” value ([2]; i.v. 1 mg/kg on Days 1, 5, 9) was 40 fL, the “hematocrit (HCT)” value ([2]; i.v. 1 mg/kg on Days 1, 5, 9) was 47% and the “hemoglobin (HGB)” value ([2]; i.v. 1 mg/kg on Days 1, 5, 9) was 15 g/dL. The “mean corpuscular hemoglobin (MCH)” value ([2]; i.v. 1 mg/kg on Days 1, 5, 9) was 13 pg, the “mean corpuscular hemoglobin concentration (MCHC)” value ([2]; i.v. 1 mg/kg on Days 1, 5, 9) was 32 g/dL and the “red blood cell (RBC) count” value ([2]; i.v. 1 mg/kg on Days 1, 5, 9) was 12 10^12/L. For the same substance, the “white blood cell (WBC) count” value ([2]; i.v. 1 mg/kg on Days 1, 5, 9) was 8 10^3/μL, the “Mean corpuscular volume (MCV)” value ([2]; i.v. 10 mg/kg on Days 1, 5, 9) was 41 fL and the “hematocrit (HCT)” value ([2]; i.v. 10 mg/kg on Days 1, 5, 9) was 47%. The “hemoglobin (HGB)” value ([2]; i.v. 10 mg/kg on Days 1, 5, 9) was 15 g/dL, the “mean corpuscular hemoglobin (MCH)” value ([2]; i.v. 10 mg/kg on Days 1, 5, 9) was 13 pg and the “mean corpuscular hemoglobin concentration (MCHC)” value ([2]; i.v. 10 mg/kg on Days 1, 5, 9) was 31 g/dL. For the same substance, the “red blood cell (RBC) count” value ([2]; i.v. 10 mg/kg on Days 1, 5, 9) was 11 10^12/L and the “white blood cell (WBC) count” value ([2]; i.v. 10 mg/kg on Days 1, 5, 9) was 9 10^3/μL.
For “1590463 BCY17901 (CPXDAYLGCXSYCEPWX; not fully specified; non-natural residues; cyclised or stapled)”, the “Diaphragm mouse DMPK RNA (% control)” value (mouse DMPK RNA; i.v. 1 mg/kg on Days 1, 5, 9) was 57 % control, the “Gastrocnemius mouse DMPK RNA (% control)” value (mouse DMPK RNA; i.v. 1 mg/kg on Days 1, 5, 9) was 74 % control and the “Heart mouse DMPK RNA (% control)” value (mouse DMPK RNA; i.v. 1 mg/kg on Days 1, 5, 9) was 75 % control. For the same substance, the “Quadriceps mouse DMPK RNA (% control)” value (mouse DMPK RNA; i.v. 1 mg/kg on Days 1, 5, 9) was 79 % control, the “Tibialis Anterior mouse DMPK RNA (% control)” value (mouse DMPK RNA; i.v. 1 mg/kg on Days 1, 5, 9) was 71 % control and the “Diaphragm mouse DMPK RNA (% control)” value (mouse DMPK RNA; i.v. 10 mg/kg on Days 1, 5, 9) was 14 % control. The “Gastrocnemius mouse DMPK RNA (% control)” value (mouse DMPK RNA; i.v. 10 mg/kg on Days 1, 5, 9) was 15 % control, the “Heart mouse DMPK RNA (% control)” value (mouse DMPK RNA; i.v. 10 mg/kg on Days 1, 5, 9) was 44 % control and the “Quadriceps mouse DMPK RNA (% control)” value (mouse DMPK RNA; i.v. 10 mg/kg on Days 1, 5, 9) was 14 % control. The “Tibialis Anterior mouse DMPK RNA (% control)” value (mouse DMPK RNA; i.v. 10 mg/kg on Days 1, 5, 9) was 14 % control, the “Creatine (CREAT)” value ([1]; i.v. 1 mg/kg on Days 1, 5, 9) was 0.15 mg/dL and the “alanine aminotransferase (ALT)” value ([1]; i.v. 1 mg/kg on Days 1, 5, 9) was 65 U/L. The “albumin (ALB)” value ([1]; i.v. 1 mg/kg on Days 1, 5, 9) was 2.76 g/dL, the “aspartate aminotransferase (AST)” value ([1]; i.v. 1 mg/kg on Days 1, 5, 9) was 107 U/L and the “blood urea nitrogen (BUN)” value ([1]; i.v. 1 mg/kg on Days 1, 5, 9) was 23 mg/dL. The “total Protein (PROT)” value ([1]; i.v. 1 mg/kg on Days 1, 5, 9) was 4.73 g/dL, the “total bilirubin (TBIL)” value ([1]; i.v. 1 mg/kg on Days 1, 5, 9) was 0.13 mg/dL and the “Creatine (CREAT)” value ([1]; i.v. 10 mg/kg on Days 1, 5, 9) was 0.15 mg/dL. The “alanine aminotransferase (ALT)” value ([1]; i.v. 10 mg/kg on Days 1, 5, 9) was 35 U/L, the “albumin (ALB)” value ([1]; i.v. 10 mg/kg on Days 1, 5, 9) was 2.63 g/dL and the “aspartate aminotransferase (AST)” value ([1]; i.v. 10 mg/kg on Days 1, 5, 9) was 98 U/L. For the same substance, the “blood urea nitrogen (BUN)” value ([1]; i.v. 10 mg/kg on Days 1, 5, 9) was 23 mg/dL, the “total Protein (PROT)” value ([1]; i.v. 10 mg/kg on Days 1, 5, 9) was 4.53 g/dL and the “total bilirubin (TBIL)” value ([1]; i.v. 10 mg/kg on Days 1, 5, 9) was 0.14 mg/dL. The “Mean corpuscular volume (MCV)” value ([2]; i.v. 1 mg/kg on Days 1, 5, 9) was 40 fL, the “hematocrit (HCT)” value ([2]; i.v. 1 mg/kg on Days 1, 5, 9) was 48% and the “hemoglobin (HGB)” value ([2]; i.v. 1 mg/kg on Days 1, 5, 9) was 15 g/dL. For the same substance, the “mean corpuscular hemoglobin (MCH)” value ([2]; i.v. 1 mg/kg on Days 1, 5, 9) was 13 pg, the “mean corpuscular hemoglobin concentration (MCHC)” value ([2]; i.v. 1 mg/kg on Days 1, 5, 9) was 31 g/dL and the “red blood cell (RBC) count” value ([2]; i.v. 1 mg/kg on Days 1, 5, 9) was 12 10^12/L. The “white blood cell (WBC) count” value ([2]; i.v. 1 mg/kg on Days 1, 5, 9) was 7 10^3/μL, the “Mean corpuscular volume (MCV)” value ([2]; i.v. 10 mg/kg on Days 1, 5, 9) was 41 fL and the “hematocrit (HCT)” value ([2]; i.v. 10 mg/kg on Days 1, 5, 9) was 47%. For the same substance, the “hemoglobin (HGB)” value ([2]; i.v. 10 mg/kg on Days 1, 5, 9) was 15 g/dL, the “mean corpuscular hemoglobin (MCH)” value ([2]; i.v. 10 mg/kg on Days 1, 5, 9) was 13 pg and the “mean corpuscular hemoglobin concentration (MCHC)” value ([2]; i.v. 10 mg/kg on Days 1, 5, 9) was 31 g/dL. The “red blood cell (RBC) count” value ([2]; i.v. 10 mg/kg on Days 1, 5, 9) was 11 10^12/L and the “white blood cell (WBC) count” value ([2]; i.v. 10 mg/kg on Days 1, 5, 9) was 9 10^3/μL.
With “1590463-BCY17896: modified oligonucleotide 1590463 conjugated to CD71 bicycle ligand BCY17896 through a BCN linker (CPXDAYLGCXSYCX; not fully specified; non-natural residues; cyclised or stapled)” the “Diaphragm ED50” value (mouse DMPK RNA; [4]) was 1.4 mg/kg, the “Gastrocnemius ED50” value (mouse DMPK RNA; [4]) was 2.9 mg/kg and the “Quadriceps ED50” value (mouse DMPK RNA; [4]) was 2.6 mg/kg. For the same substance, the “Tibialis Anterior ED50” value (mouse DMPK RNA; [4]) was 3.3 mg/kg, the “BAS (basophils)” value ([2]; 1 mg/kg i.v.) was 0.07% and the “LYM (lymphocytes)” value ([2]; 1 mg/kg i.v.) was 85%. For the same substance, the “MON (monocytes)” value ([2]; 1 mg/kg i.v.) was 5%, the “NEU (neutrophils)” value ([2]; 1 mg/kg i.v.) was 8% and the “PLT (platelets)” value ([2]; 1 mg/kg i.v.) was 1170 10^9/L. For the same substance, the “RETI (reticulocytes)” value ([2]; 1 mg/kg i.v.) was 439 10^3/μL, the “BAS (basophils)” value ([2]; 10 mg/kg i.v.) was 0.07% and the “LYM (lymphocytes)” value ([2]; 10 mg/kg i.v.) was 84%. The “MON (monocytes)” value ([2]; 10 mg/kg i.v.) was 6%, the “NEU (neutrophils)” value ([2]; 10 mg/kg i.v.) was 8% and the “PLT (platelets)” value ([2]; 10 mg/kg i.v.) was 1087 10^9/L. For the same substance, the “RETI (reticulocytes)” value ([2]; 10 mg/kg i.v.) was 389 10^3/μL, the “Body weight Day 1” value ([3]; 1 mg/kg i.v.) was 27 g and the “Body weight Day 15” value ([3]; 1 mg/kg i.v.) was 28 g. For the same substance, the “Organ weight Kidney” value ([3]; 1 mg/kg i.v.) was 0.35 g, the “Organ weight Liver” value ([3]; 1 mg/kg i.v.) was 1.49 g and the “Organ weight Spleen” value ([3]; 1 mg/kg i.v.) was 0.07 g. The “Body weight Day 1” value ([3]; 10 mg/kg i.v.) was 24 g, the “Body weight Day 15” value ([3]; 10 mg/kg i.v.) was 25 g and the “Organ weight Kidney” value ([3]; 10 mg/kg i.v.) was 0.33 g. For the same substance, the “Organ weight Liver” value ([3]; 10 mg/kg i.v.) was 1.39 g and the “Organ weight Spleen” value ([3]; 10 mg/kg i.v.) was 0.07 g.
